Measurements from article PMC10331576.

Target: COVID-2019-Spike-328-585 (RBD) (SARS-CoV-2), P0DTC2
Assay: BLI; […] (HIS1K) […] (50 μM, 31 μM, and 8.8 μM); 30°C, PBS; 1:1 binding model; Octet HTX
Conditions: remark: other sources report otherwise

B1: DC-SIGN.Fc, Q9NNX6 (Fc fusion)
chain: QVSKVPSSISQEQSRQDAIYQNLTQLKAAVGELSEKSKLQEIYQELTQLKAAVGELPEKSKLQEIYQELTRLKAAVGELPEKSKLQEIYQELTWLKAAVGELPEKSKMQEIYQELTRLKAAVGELPEKSKQQEIYQELTRLKAAVGELPEKSKQQEIYQELTRLKAAVGELPEKSKQQEIYQELTQLKAAVERLCHPCPWEWTFFQGNCYFMSNSQRNWHDSITACKEVGAQLVVIKSAEEQNFLQLQSSRSNRFTWMGLSDLNQEGTWQWVDGSPLLPSFKQYWNRGEPNNVGEEDCAEFSGNGWNDDKCNLAKFWICKKSAASCSRDEEQFLSPAPATPNPPPA
With B1 the Kd was 18.7 µM.
